Laboratory results reported in US20150285818A1, “Switchable Reporter Enzymes for Homogenous Antibody Detection” (TECHNISCHE UNIVERSITEIT EINDHOVEN, priority 2012, published 2015).
Changes are numbered by the printed parent chain. Names and notes keep the numbering of the source.

B1: Abs2-2: Abs3-2 with the large epitope changed for the shorter WEKIRLR epitope; SEQ ID NO: 20 (protein)
chain: MSIQHFRVALIPFFAAFCLPVFAHHHHHHLVPRGSHPETLVKVKDAEDQLGARVGYIELDLNSGKILESFRPEERFPMMSTFKVLLCGAVLSRIDAGQEQLGRRIHYSQNDLVDYSPVTEKHLTDGMTVRELCSAAITMSDNTAANLLLTTIGGPKELTAFLHNMGDHVTRLDRWEPELNEAIPNDERDTTMPVAMATTLRKLLTGELLTLASRQQLIDWMEADKVAGPLLRSALPAGWFIADKSGAGERGSRGIIAALGPDGKPSRIVVIYTTGSQATMDERNRQIAEIGASLIKHWTSGGWEKIRLRGGSGGSGGSGGSGGSGGSGAEAAAKEAAAKEAAAKEAAAKEAAAKEAAAKAGSGGSGGSGGPQGILGQGSGGSGGSGGSGAEAAAKEAAAKEAAAKEAAAKEAAAKEAAAKAGSGGSGGSGGSGGSGGSGGWEKIRLRGGSGGSHGAGVMTGAKFTQIQFGMTRQQVLDIAGAENCETGGSFGDSIHCRGHAAGDYYAYATFGFTSAAADAKVDSKSQEKLLAPSAPTLTLAKFNQVTVGMTRAQVLATVGQGSCTTWSEYYPAYPSTAGVTLSLSCFDVDGYSSTGAYRGSAHLWFTDGVLQGKRQWDLVGEFGGWSHPQFEK
B2: Abs-2: TEM1 β-lactamase fused via linker with WEKIRLR epitopes to BLIP protein as inhibitor domain; SEQ ID NO: 13 (protein)
chain: B1 chain with D114E, A597F
B3: Abs3-1: Abs-3 variant with E104D in β-lactamase and E31A in BLIP; SEQ ID NO: 22 (protein)
chain: MSIQHFRVALIPFFAAFCLPVFAHHHHHHLVPRGSHPETLVKVKDAEDQLGARVGYIELDLNSGKILESFRPEERFPMMSTFKVLLCGAVLSRIDAGQEQLGRRIHYSQNDLVDYSPVTEKHLTDGMTVRELCSAAITMSDNTAANLLLTTIGGPKELTAFLHNMGDHVTRLDRWEPELNEAIPNDERDTTMPVAMATTLRKLLTGELLTLASRQQLIDWMEADKVAGPLLRSALPAGWFIADKSGAGERGSRGIIAALGPDGKPSRIVVIYTTGSQATMDERNRQIAEIGASLIKHWTSGGELDRWEKIRLRPGGSGGSGGSGGSGGSGGSGAEAAAKEAAAKEAAAKEAAAKEAAAKEAAAKAGSGGSGGSGGSGGSGGSGAEAAAKEAAAKEAAAKEAAAKEAAAKEAAAKAGSGGSGGSGGSGGSGGSGGELDRWEKIRLRPGGSHGAGVMTGAKFTQIQFGMTRQQVLDIAGAENCATGGSFGDSIHCRGHAAGDYYAYATFGFTSAAADAKVDSKSQEKLLAPSAPTLTLAKFNQVTVGMTRAQVLATVGQGSCTTWSEYYPAYPSTAGVTLSLSCFDVDGYSSTGFYRGSAHLWFTDGVLQGKRQWDLVGEFGGWSHPQFEK
B4: Abs3-2: Abs-3 variant with E104D in β-lactamase and F142A in BLIP; SEQ ID NO: 37 (protein)
chain: B3 chain with A482E, F593A
B5: Abs-1: TEM1 β-lactamase fused via linker with WEKIRLR epitopes to weak-binding RRGHYY peptide inhibitor; SEQ ID NO: 12 (protein)
chain: MSIQHFRVALIPFFAAFCLPVFAHHHHHHLVPRGSHPETLVKVKDAEDQLGARVGYIELDLNSGKILESFRPEERFPMMSTFKVLLCGAVLSRIDAGQEQLGRRIHYSQNDLVEYSPVTEKHLTDGMTVRELCSAAITMSDNTAANLLLTTIGGPKELTAFLHNMGDHVTRLDRWEPELNEAIPNDERDTTMPVAMATTLRKLLTGELLTLASRQQLIDWMEADKVAGPLLRSALPAGWFIADKSGAGERGSRGIIAALGPDGKPSRIVVIYTTGSQATMDERNRQIAEIGASLIKHWTSGGWEKIRLRGGSGGSGGSGGSGGSGGSGAEAAAKEAAAKEAAAKEAAAKEAAAKEAAAKAGSGGSGGSGGPQGILGQGSGGSGGSGGSGAEAAAKEAAAKEAAAKEAAAKEAAAKEAAAKAGSGGSGGSGGSGGSGGSGGWEKIRLRGGSGGSHGRRGHYYGEFGGWSHPQFEK

How the values were obtained:
[1] = test system: anti-HIV1-p17 antibody; assay: Reporter enzyme activity assay with nitrocefin and anti-HIV1-p17 antibody titration; settings: 50 μM nitrocefin; for Kd: read-out: dissociation constant (Kd) of reporter enzyme for target antibody, fit of nitrocefin hydrolysis rate vs anti-HIV1-p17 concentration, 1:1 binding model, pH 7.0; for increase in enzymatic activity upon addition of 200 nM anti-HIV1-p17: 0.3 nM sensor, 200 nM antibody
[2] = test system: IgG mix; assay: Specificity of reporter enzyme activity towards nonspecific IgG mix; settings: up to highest IgG concentration tested (2 μM)
[3] = test system: anti-HIV1-p17 antibody; assay: Reporter enzyme activity assay with fluorescent substrate CCF2-FA in buffer and serum

Molecule	increase in enzyme activity upon addition of target antibody ([1]; saturating anti-HIV1-p17)	Kd [1]	increase in enzymatic activity upon addition of 200 nM anti-HIV1-p17 [1]	enzymatic (background) activity in the absence of antibody [1]	increase in enzyme activity with random mix of IgG proteins [2]	increase in enzyme activity upon addition of 50 nM target antibody in serum ([3]; 5 nM sensor, 10% FBS, 10 μM CCF2-FA)	dynamic range with CCF2-FA as substrate ([3]; 1 μM CCF2-FA in buffer, 0.1 nM sensor)	enzymatic activity in absence of target antibody, 1 μM CCF2-FA compared to 50 μM nitrocefin ([3]; buffer)
B1	1.8 fold	108 nM	–	–	–	–	–	–
B2	–	–	no increase in activity	strongly inhibited	–	–	–	–
B3	–	0.17 ± 0.03 nM	–	low background activity	No significant increase	10 fold	9 fold	significantly lower
B4	–	0.19 ± 0.02 nM	–	low background activity	No significant increase	–	–	–
B5	–	–	no increase in enzymatic activity	–	–	–	–	–
